The text below walks through data of patent publication US8053186.

Data set [1] deals with All1/Af9 fusion protein (endogenous, PER377 cells with t(9;11)), Q03164.
In data set [2] the target is All1/Af4 fusion protein (endogenous, SEMK2 cells with t(4;11)), Q03164.
Chain of All1/Af4 fusion protein (endogenous, SEMK2 cells with t(4;11)), Q03164 (Q03164 other isoform, or with tags, fused parts or gaps): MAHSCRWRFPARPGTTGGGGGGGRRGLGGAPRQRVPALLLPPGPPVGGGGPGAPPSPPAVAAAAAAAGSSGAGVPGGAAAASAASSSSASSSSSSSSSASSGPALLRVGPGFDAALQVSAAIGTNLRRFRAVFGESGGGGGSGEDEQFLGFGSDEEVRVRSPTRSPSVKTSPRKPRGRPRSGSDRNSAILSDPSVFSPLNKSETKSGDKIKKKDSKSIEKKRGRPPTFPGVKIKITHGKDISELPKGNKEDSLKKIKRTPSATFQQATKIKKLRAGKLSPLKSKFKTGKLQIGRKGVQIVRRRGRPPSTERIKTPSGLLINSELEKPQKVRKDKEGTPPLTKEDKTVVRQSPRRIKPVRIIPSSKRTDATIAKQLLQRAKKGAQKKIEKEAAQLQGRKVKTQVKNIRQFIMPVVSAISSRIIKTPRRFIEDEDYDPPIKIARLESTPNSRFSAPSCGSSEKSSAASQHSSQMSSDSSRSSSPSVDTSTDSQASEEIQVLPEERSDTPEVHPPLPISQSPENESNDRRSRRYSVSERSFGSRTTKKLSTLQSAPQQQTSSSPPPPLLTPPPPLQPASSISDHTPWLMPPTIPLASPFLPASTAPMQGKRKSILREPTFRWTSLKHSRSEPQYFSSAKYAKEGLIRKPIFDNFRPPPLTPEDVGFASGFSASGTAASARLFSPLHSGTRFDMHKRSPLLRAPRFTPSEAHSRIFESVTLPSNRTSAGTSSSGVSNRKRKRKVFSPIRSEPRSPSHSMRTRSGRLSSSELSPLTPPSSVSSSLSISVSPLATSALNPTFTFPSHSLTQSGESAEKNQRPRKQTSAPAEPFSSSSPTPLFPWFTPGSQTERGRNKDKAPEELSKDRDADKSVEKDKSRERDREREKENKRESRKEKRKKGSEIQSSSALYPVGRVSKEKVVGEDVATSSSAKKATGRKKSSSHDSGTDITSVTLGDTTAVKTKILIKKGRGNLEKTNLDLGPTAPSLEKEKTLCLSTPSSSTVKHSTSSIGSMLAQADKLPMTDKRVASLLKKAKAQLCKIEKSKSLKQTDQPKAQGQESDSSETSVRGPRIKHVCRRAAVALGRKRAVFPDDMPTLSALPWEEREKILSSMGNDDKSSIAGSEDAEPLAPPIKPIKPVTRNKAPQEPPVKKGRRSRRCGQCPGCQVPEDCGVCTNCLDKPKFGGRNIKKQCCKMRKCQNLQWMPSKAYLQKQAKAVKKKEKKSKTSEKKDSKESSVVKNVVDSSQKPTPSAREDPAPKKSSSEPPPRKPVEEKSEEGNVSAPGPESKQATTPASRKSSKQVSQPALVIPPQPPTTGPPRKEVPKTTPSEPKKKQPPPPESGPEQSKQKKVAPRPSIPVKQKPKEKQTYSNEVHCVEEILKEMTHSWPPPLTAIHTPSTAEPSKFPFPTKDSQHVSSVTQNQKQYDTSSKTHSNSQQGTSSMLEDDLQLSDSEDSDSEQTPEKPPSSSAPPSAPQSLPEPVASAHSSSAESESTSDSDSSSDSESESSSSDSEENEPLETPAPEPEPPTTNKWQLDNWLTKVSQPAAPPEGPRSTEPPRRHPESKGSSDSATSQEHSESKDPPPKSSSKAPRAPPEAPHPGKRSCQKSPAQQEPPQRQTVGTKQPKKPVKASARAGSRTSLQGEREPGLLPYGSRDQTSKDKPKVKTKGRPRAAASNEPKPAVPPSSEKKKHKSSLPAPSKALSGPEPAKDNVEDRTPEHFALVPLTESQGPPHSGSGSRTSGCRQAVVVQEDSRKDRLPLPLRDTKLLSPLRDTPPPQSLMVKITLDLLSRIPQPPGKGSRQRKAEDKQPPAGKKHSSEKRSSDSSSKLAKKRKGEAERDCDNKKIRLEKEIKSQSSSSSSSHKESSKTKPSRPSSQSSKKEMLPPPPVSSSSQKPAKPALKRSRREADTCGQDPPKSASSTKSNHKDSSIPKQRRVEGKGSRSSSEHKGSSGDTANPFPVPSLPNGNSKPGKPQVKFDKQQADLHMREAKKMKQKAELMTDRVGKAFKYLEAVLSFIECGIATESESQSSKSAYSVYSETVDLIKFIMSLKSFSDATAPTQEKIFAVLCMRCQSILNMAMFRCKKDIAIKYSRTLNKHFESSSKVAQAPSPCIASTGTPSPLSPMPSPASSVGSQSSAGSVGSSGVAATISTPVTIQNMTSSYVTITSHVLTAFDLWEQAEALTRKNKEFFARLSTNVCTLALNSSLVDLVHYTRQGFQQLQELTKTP

Chain of All1/Af9 fusion protein (endogenous, PER377 cells with t(9;11)), Q03164 (Q03164 other isoform, or with tags, fused parts or gaps): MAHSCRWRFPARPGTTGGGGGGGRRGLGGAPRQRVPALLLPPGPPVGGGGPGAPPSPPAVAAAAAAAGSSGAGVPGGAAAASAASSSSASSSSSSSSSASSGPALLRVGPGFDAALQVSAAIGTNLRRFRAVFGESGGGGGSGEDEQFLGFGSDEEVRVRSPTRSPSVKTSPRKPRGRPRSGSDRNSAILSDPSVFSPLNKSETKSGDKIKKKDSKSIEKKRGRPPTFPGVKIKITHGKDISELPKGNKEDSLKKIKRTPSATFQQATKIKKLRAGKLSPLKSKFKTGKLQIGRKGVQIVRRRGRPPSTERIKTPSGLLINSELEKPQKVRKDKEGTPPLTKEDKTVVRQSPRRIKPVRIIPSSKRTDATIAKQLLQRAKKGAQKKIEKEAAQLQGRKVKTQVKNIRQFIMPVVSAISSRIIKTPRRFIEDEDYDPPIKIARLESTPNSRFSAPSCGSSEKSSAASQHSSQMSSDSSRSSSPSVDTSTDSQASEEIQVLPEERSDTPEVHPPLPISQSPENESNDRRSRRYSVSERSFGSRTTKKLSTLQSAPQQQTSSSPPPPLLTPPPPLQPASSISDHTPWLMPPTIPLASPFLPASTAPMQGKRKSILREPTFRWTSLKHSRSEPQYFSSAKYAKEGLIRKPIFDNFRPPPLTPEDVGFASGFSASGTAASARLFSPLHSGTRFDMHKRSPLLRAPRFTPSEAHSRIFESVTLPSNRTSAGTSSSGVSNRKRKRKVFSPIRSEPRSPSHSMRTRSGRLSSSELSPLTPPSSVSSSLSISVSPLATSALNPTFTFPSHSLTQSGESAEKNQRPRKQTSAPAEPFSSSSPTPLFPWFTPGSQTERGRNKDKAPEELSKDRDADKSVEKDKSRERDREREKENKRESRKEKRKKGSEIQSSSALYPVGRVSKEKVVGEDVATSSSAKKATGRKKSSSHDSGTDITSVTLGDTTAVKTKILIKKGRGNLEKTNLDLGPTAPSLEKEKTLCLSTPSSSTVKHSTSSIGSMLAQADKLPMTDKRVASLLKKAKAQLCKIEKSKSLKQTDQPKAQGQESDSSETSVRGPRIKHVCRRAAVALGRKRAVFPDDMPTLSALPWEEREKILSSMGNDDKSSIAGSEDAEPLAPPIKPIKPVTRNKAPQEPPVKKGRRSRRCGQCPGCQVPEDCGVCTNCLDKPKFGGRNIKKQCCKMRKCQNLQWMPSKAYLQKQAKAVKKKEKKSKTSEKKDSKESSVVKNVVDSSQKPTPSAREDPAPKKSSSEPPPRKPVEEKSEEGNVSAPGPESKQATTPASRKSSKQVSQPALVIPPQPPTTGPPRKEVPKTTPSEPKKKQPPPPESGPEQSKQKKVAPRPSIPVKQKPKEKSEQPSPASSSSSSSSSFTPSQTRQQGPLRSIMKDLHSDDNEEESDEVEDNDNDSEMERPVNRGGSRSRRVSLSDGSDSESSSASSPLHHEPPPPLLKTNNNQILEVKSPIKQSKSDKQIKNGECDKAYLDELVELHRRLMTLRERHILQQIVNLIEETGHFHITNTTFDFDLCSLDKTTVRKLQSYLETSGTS

B1: Drosha (endogenous, immunoprecipitated from SEMK2 or PER377 nuclear extracts) (protein)
chain: MMQGNTCHRMSFHPGRGCPRGRGGHGARPSAPSFRPQNLRLLHPQQPPVQYQYEPPSAPSTTFSNSPAPNFLPPRPDFVPFPPPMPPSAQGPLPPCPIRPPFPNHQMRHPFPVPPCFPPMPPPMPCPNNPPVPGAPPGQGTFPFMMPPPSMPHPPPPPVMPQQVNYQYPPGYSHHNFPPPSFNSFQNNPSSFLPSANNSSSPHFRHLPPYPLPKAPSERRSPERLKHYDDHRHRDHSHGRGERHRSLDRRERGRSPDRRRQDSRYRSDYDRGRTPSRHRSYERSRERERERHRHRDNRRSPSLERSYKKEYKRSGRSYGLSVVPEPAGCTPELPGEIIKNTDSWAPPLEIVNHRSPSREKKRARWEEEKDRWSDNQSSGKDKNYTSIKEKEPEETMPDKNEEEEEELLKPVWIRCTHSENYYSSDPMDQVGDSTVVGTSRLRDLYDKFEEELGSRQEKAKAARPPWEPPKTKLDEDLESSSESECESDEDSTCSSSSDSEVFDVIAEIKRKKAHPDRLHDELWYNDPGQMNDGPLCKCSAKARRTGIRHSIYPGEEAIKPCRPMTNNAGRLFHYRITVSPPTNFLTDRPTVIEYDDHEYIFEGFSMFAHAPLTNIPLCKVIRFNIDYTIHFIEEMMPENFCVKGLELFSLFLFRDILELYDWNLKGPLFEDSPPCCPRFHFMPRFVRFLPDGGKEVLSMHQILLYLLRCSKALVPEEEIANMLQWEELEWQKYAEECKGMIVTNPGTKPSSVRIDQLDREQFNPDVITFPIIVHFGIRPAQLSYAGDPQYQKLWKSYVKLRHLLANSPKVKQTDKQKLAQREEALQKIRQKNTMRREVTVELSSQGFWKTGIRSDVCQHAMMLPVLTHHIRYHQCLMHLDKLIGYTFQDRCLLQLAMTHPSHHLNFGMNPDHARNSLSNCGIRQPKYGDRKVHHMHMRKKGINTLINIMSRLGQDDPTPSRINHNERLEFLGDAVVEFLTSVHLYYLFPSLEEGGLATYRTAIVQNQHLAMLAKKLELDRFMLYAHGPDLCRESDLRHAMANCFEALIGAVYLEGSLEEAKQLFGRLLFNDPDLREVWLNYPLHPLQLQEPNTDRQLIETSPVLQKLTEFEEAIGVIFTHVRLLARAFTLRTVGFNHLTLGHNQRMEFLGDSIMQLVATEYLFIHFPDHHEGHLTLLRSSLVNNRTQAKVAEELGMQEYAITNDKTKRPVALRTKTLADLLESFIAALYIDKDLEYVHTFMNVCFFPRLKEFILNQDWNDPKSQLQQCCLTLRTEGKEPDIPLYKTLQTVGPSHARTYTVAVYFKGERIGCGKGPSIQQAEMGAAMDALEKYNFPQMAHQKRFIERKYRQELKEMRWEREHQEREPDETEDIKK
B1: the “in vitro cleavage of miR-191 and miR-155 probes by immuno-purified Drosha” value is reported as “Drosha containing All1/Af9 had less processing activity, similar to that of the Drosha:FLAG preparation” in data set [1] and “Drosha containing All1/Af4 exhibited the strongest processing activity” in data set [2].
